Reference: the NTF2 design screens of Basanta et al. (2020)

Assay: protease stability score; higher = more stable; yeast display proteolysis, trypsin and chymotrypsin;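 also: relative to predicted unfolded state with 0 unfolded-like and 1 meaning tenfold more protease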

| Sequence | protease stability score |
| --- | --- |
| DEDDELMKRFVDLLLEQLQTGDWRYIARMVDPHVRSDVDIDGVHLKYHGREMYVKLFTDLGAKHMELKHIEVQGDKADIHSHVHFDGQEREIIIYSFKVNGRWRTKRLEVRTI | 0.932 |
| DEDDELSHRAVLLYMEAVLTGNEDFMSRLVDPDVRHIVGDKEYIGREQFVEWFNEFVEKVKNVTVRLRHHDIQGDKVVVHTEYRVNGRTWHEHVIILKINGKWRLKELRIHIE | 0.723 |
| DEDDELSRKAREFTSEVLRTGDEHSLLRMADPNTRNIVGNKEEHGWEHFEHFVREHWRRFGITNVDVKLEDLRVVDGRIEADMRVRVNGVERTWHFLIRKIDGKWRMESIEIR | 0.416 |
| DEDDELYKRVFELIEHDNHTGNEKSHLELADPHARLLYDGKLVIGRELLLEWMRRLGIDVIRHMDFKRFRIQGDKIEMDVRVHGEVNGRHIDTDTHLIARKVNGRWLLEEIRIK | 0.937 |
| DEDDEMWRELFEMYIRLARTGDEKADELLMDPDARIEIGDKRWHGREWTHFFLERVDHVHRVEFRVDDRRIQGDKVDVDGTFILDIHQGDKRIHTSIRSHLTVLKVDGKWRVHQMELR | 1.73 |
| DEDDENIEKVLRTLFKLIHTGDWRTWLRFFDPHVKLEIGDKRLHGREVAEEFIRHRIEHLGVDRVEVRLHSFDKQGNKLHSDMRLYVGDKEFNVEMHMEKVNGKWIVRVFSID | 1.38 |
| DEDDENNREMHDLSIRLFKTGDFDKIHKLMDPNAKLVIDIGDKHLHHHGREEASKRIFEIWHTLGVDHVHIKTHRHYGEKITIDMHLDINGQDTELIIVVLKINGRWLIQSVSMHFR | 1.35 |
| DEDDENVEQFIELFNEVMNTGDWRSLKRMIDPNARSRIGEKHLIGREMLEDFRHQADHVKIRDMKIERSHVINGRVLVDGIVHGEENFNGRRFLVNREVHLVVVKVNGRWFLRSIEFG | 0.809 |
| DEDDERSRLFLEEMMRTLLTGDERKSHELADPRVRINVNGRHIHGRELWNRFVHEARIRITHHRIHSRDIYNGRIELDVELRGDIHIGDKDIHLDTRIILFVLKVNGRWHLEIMEIV | 1.25 |
| DEDDEVAIKFLEDIIQVWETGDEEEFSRLFDPDYRVHIGDKTLHGREIVVQEILEHLRRLGIERFEVRIHIRHAHFYNGRLDLNGELVIIINGKELRRHTHFVVLKVNGRWLLEREEVK | 1.76 |
| DEDDEVSKFVAHVLSRVFHTGDEENLQKLADPNVRLHIGDKHHIGRETFIRWLRHFLDRADHVDSDVHDVRSIDGRIWADTRLRLEINGQTIEREVIIVIHKINGRWILHRIEIR | 1.49 |
| DEDDHFWERLTEIILHILQTGNEEALHRMLDPHMRLDYNGRSFHGRELAQKALMRFWEDLGVDHIRVKDRRVQGDKVHLHGEIIIDGRLHETREHWLIVNGRIKHVRLEIR | 0.696 |
| DEDDKDIEMVLRRLIEMVMTGDFEKAKRYADPDMQLDIGDKHFVGRETTITVLREWREHLGIDHVDIDHVHLHIIDGQVIVDLDITHRAENREIRVRFIHYVDKINGRWLVRRVDVKIH | 2.31 |
| DEDDKEAEKALRDMVHSWVTGDEQKNQELADPHVRVIIGEFNFVGRDDLDKWLREIRIHNIEIKDIDVFDGKVELKGTLTIRIGDKEVRHEVDFYMVKINGRWHLHRIQVH | 2.08 |
| DEDDKKAEDFANVIAHNLMTGDEEKHNKMIDPNVKIFINGQTVHGRDEFSKVMRRYKNLRIDWEVEELEIVNGQVRLKGHLHVEVNGVETRIDTHIVVTKVNGRWHMKEIYYH | 1.62 |
| DEDDKLLEKWVKDLREALRTGDEQTLLKLIDPNTRLEIGDKDFHGREVIVKLWKDLGMEIRDVKVHDIKRQGDFLELDIRIDVIINGVRENREHKIYALKVNGKWFVKTQIDE | 2.13 |
| DEDDKRSEKYLQKLLTDTHTGDETAYRDLADPHVRIEFNGREWHGWKRAHEVFHRILEEMRLKDLRIEDVRKQGEKVRLHIRLHSTVDGKQVDLELEIILLKVNGQWYIKDVTLI | 0.886 |
| DEDDNDMEEMVRLFDRDLHTGNEDLLTELADPHARFDINGVELHGMHEFVTIWLEIRFILRDSRVEHIHIQGDKAHIKSRLHGEMIFNGRTTIVHSEVHIYFEKIDGRWMIHRHIVK | 0.102 |

| Sequence | protease stability score |
| --- | --- |
| DEDDQWSEMLAKKYLDRVLTGDEKRMKSLLDPNVRLSVNGVDMHGREVFVHWLRTVLNRVDHQELRLRHLHSQGDKAHVDTEVIENWDGVKIVKETELEFIFVNGRFHSVFHRER | 0.267 |
| DEDDRDMREFWELLFHYLLTGDWESLEKLIDPNARIRVNGKELHGMHYHIRQLTHEVKRFDHIDQRIHHSSVINGKIHLDIHLIINVDGQSFVIHIKMHVDKVDGRWLTRSVHIH | 1.09 |
| DEDDRHSERMSEYMIKVWMTGDEDAEKRLFDPHARIDVDGQEFIGREELHKISHEHLRKLGFDHFHVRHVELRLIDGKAHLSLDTEVRVGDFKFETSIYNNFEKVNGKWEIRELQVRIR | 1.2 |
| DEDDRIHEWSMRWLIQSLRTGDEDMLREYIDPHTRVHVNGKEEHGREAADKLAKRIDHLHHLIIRSEERQGDKIIMDIERDILIDGVRINTRVSLILLKVNGRWFMKSIHFL | 0.826 |
| DEDDRLAEDLLRLIYHALQTGDEKHLEDFMDPHTQIIIEWNGVRDDTHGREEFSRKFHEQVRELRVHFHQNSIHVINGRAHNDGRLELNINGKIIKLKVILEIQVINGRIKEIRIIVR | 1.95 |
| DEDDRVAEHALRLLFELLRTGDWEHILEMFDPNMRLDFDGKKWHGRESFRELFTRFLEEIRIHDVKVEDFKVFDGRVEVDTRIRGKYGDKETKLETKIVALKINGRWVLESSHYN | 0.898 |
| DEDEDDAERVFEELRKLIITGDEEEWEKLADPHVRVIINGRELHGREEWARFMRHMRIKNEHVHLRRMRVVDGRIEIDGEMDFRVDFNGQERRTRTDTNLIVTKYDGRWKLHHIEIR | 1.33 |
| DEDEDEIKRIVEIIEHALRTGDEDLMRRLFDPNARLDINGREVHGRESFIEILHHWLHELRFKSLRLHQVHIVDGKAHVDTRVTYHINGVEIHIETERNMLKVDGRWFITHEHHR | 0.025 |
| DEDEDESRRFHEEFIKRILTGDEDEFVKLLDPDVRIEIGDKKSIGRERALERFHRMLTEIRVHHVELRERTIQGDKVFLNMEVDLEFNGRRDRTKFHMIIWKVDGQWTLSEMRVK | 2.48 |
| DEDEDFIRHQIQLYIELFETGDWRSLKRLADPNARHHINGRDLHGMDLFRRHIEHMGIKIKHIKLRDMRVIGDKIELKVENNVEIDGRERSLEEEIIARKIDGRWILESSTIR | 0.39 |
| DEDEDHVRDMIEVFVRLMITGDEDTFKNLADPHVQFHFENVKLHGRHALLEWLRRLNREFKNIRVQILVHHVEVQGEKATVHSHIVVHVGDKTEHYDTELHIIVIDGRIKTVIIKRK | 1.5 |
| DEDEDIVRRHLHKLSKAWRTGDEETEKKLADPHARIQIGDKTDHGMEKMTKDWHEFLREMRVEIRIEDTRVQGDKVVNHIHIHSDIDGKEIILHSRIIVRKIDGRWHIESFVLI | 0.475 |
| DEDEDLLRRFTELWNHIYLTGDERMLHHLVDPHARLDVNGKEMHGRELLIKWMVKEIRDLGADHYRIDIKHYHFVDGRAHVQSTLEVDIGDKRITFYIRLILLKVNGRWVVHTIYYH | 1.55 |
| DEDEDSFRRISKLLSHAFRTGDEDLVLELLDPHVRIVIGDKELHGWEQMDRWVRELRIRDHEIKRLDIQGDKAIVDTRLLTRVGDFHYLIDVRIIFTKVDGQWHVHQFEFH | 1.52 |
| DEDEDTAHETWKILVHSLITGDERTMELLMDPNVQVHVGDKRHIGRERASRFHSEIRTEHVEMRTSEMQGNKVILHGRVVMRVNGKTLDHDFHLILDKIDGKWYITEIRFK | 0.517 |
| DEDEEAAEKMTELFRKSIKTGDEDLLTRLIDPHVRVDVNGRDIHGRESYFHELRNLGITNVEMQLKSRDVIGDKVHIDGTNRFNGRNHKVIIIVLKFNGRWVIEEIRIH | -0.045 |
| DEDEEAARHFLEQWLEALLTGDEETLTKLLDPHTRLIVDGQELVGRELWLEFFKRIKNMKIHRTEIRHTTSIGDKITLNIHVDVEVDGKRRRFDVQYVILKVNGRWLLKQVNNH | 0.498 |
| DEDEEALDRFLEEWRRYFETGNWEMISNLVDPHARLEQGDKRFHGREEVAKYIHHLVRHMRINDFDIEHRDVQGDKIRIHLRLNGEIDGRRTEFEIHMIYIKVNGRWVVKSMVVN | 0.882 |
